Experimental data: IntAct's records for PubMed 31515488

B1: Trichoplein keratin filament-binding protein (Homo sapiens), Q9BT92 (parent)
chain: MALPTLPSYWCSQQRLNQQLARQREQEARLRQQWEQNSRYFRMSDICSSKQAEWSSKTSYQRSMHAYQREKMKEEKRRSLEARREKLRQLMQEEQDLLARELEELRLSMNLQERRIREQHGKLKSAKEEQRKLIAEQLLYEHWKKNNPKLREMELDLHQKHVVNSWEMQKEEKKQQEATAEQENKRYENEYERARREALERMKAEEERRQLEDKLQAEALLQQMEELKLKEVEATKLKKEQENLLKQRWELERLEEERKQMEAFRQKAELGRFLRHQYNAQLSRRTQQIQEELEADRRILQALLEKEDESQRLHLARREQVMADVAWMKQAIEEQLQLERAREAELQMLLREEAKEMWEKREAEWARERSARDRLMSEVLTGRQQQIQEKIEQNRRAQEESLKHREQLIRNLEEVRELARREKEESEKLKSARKQELEAQVAERRLQAWEADQQEEEEEEEARRVEQLSDALLQQEAETMAEQGYRPKPYGHPKIAWN
partner: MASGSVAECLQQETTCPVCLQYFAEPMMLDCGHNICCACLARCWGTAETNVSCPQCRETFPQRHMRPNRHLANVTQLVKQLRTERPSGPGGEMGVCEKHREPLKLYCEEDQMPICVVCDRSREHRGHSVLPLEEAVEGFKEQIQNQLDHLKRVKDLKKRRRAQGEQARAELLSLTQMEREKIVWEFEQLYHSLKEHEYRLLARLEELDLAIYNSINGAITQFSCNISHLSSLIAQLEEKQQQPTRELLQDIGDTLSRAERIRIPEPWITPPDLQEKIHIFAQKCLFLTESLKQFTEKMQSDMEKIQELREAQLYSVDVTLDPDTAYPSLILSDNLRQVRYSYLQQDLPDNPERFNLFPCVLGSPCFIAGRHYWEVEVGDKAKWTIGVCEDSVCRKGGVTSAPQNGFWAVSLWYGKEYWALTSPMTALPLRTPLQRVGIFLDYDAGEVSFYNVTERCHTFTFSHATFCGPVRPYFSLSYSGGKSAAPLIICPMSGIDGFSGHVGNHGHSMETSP
B2: Macrophage scavenger receptor types I and II (Homo sapiens), P21757 (parent)
chain: MEQWDHFHNQQEDTDSCSESVKFDARSMTALLPPNPKNSPSLQEKLKSFKAALIALYLLVFAVLIPLIGIVAAQLLKWETKNCSVSSTNANDITQSLTGKGNDSEEEMRFQEVFMEHMSNMEKRIQHILDMEANLMDTEHFQNFSMTTDQRFNDILLQLSTLFSSVQGHGNAIDEISKSLISLNTTLLDLQLNIENLNGKIQENTFKQQEEISKLEERVYNVSAEIMAMKEEQVHLEQEIKGEVKVLNNITNDLRLKDWEHSQTLRNITLIQGPPGPPGEKGDRGPTGESGPRGFPGPIGPPGLKGDRGAIGFPGSRGLPGYAGRPGNSGPKGQKGEKGSGNTLTPFTKVRLVGGSGPHEGRVEILHSGQWGTICDDRWEVRVGQVVCRSLGYPGVQAVHKAAHFGQGTGPIWLNEVFCFGRESSIEECKIRQWGTRACSHSEDAGVTCTL
B3: Transmembrane protein 79 (Homo sapiens), Q9BSE2 (parent)
chain: MTEQETLALLEVKRSDSPEKSSPQALVPNGRQPEGEGGAESPGAESLRVGSSAGSPTAIEGAEDGLDSTVSEAATLPWGTGPQPSAPFPDPPGWRDIEPEPPESEPLTKLEELPEDDANLLPEKAARAFVPIDLQCIERQPQEDLIVRCEAGEGECRTFMPPRVTHPDPTERKWAEAVVRPPGCSCGGCGSCGDREWLRAVASVGAALILFPCLLYGAYAFLPFDVPRLPTMSSRLIYTLRCGVFATFPIVLGILVYGLSLLCFSALRPFGEPRREVEIHRRYVAQSVQLFILYFFNLAVLSTYLPQDTLKLLPLLTGLFAVSRLIYWLTFAVGRSFRGFGYGLTFLPLLSMLMWNLYYMFVVEPERMLTATESRLDYPDHARSASDYRPRPWG
partner: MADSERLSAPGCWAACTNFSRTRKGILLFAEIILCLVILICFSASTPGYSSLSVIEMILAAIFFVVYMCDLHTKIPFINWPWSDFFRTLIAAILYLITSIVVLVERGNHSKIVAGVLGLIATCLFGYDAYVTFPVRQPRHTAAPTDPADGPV
B4: Ribosome biogenesis protein SLX9 homolog (Homo sapiens), Q9NSI2 (parent)
chain: MGKVRGLRARVHQAAVRPKGEAAPGPAPPAPEATPPPASAAGKDWAFINTNIFARTKIDPSALVQKLELDVRSVTSVRRGEAGSSARSVPSIRRGAEAKTVLPKKEKMKLRREQWLQKIEAIKLAEQKHREERRRRATVVVGDLHPLRDALPELLGLEAGSRRQARSRESNKPRPSELSRMSAAQRQQLLEEERTRFQELLASPAYRASPLVAIGQTLARQMQLEDGGQL
partner: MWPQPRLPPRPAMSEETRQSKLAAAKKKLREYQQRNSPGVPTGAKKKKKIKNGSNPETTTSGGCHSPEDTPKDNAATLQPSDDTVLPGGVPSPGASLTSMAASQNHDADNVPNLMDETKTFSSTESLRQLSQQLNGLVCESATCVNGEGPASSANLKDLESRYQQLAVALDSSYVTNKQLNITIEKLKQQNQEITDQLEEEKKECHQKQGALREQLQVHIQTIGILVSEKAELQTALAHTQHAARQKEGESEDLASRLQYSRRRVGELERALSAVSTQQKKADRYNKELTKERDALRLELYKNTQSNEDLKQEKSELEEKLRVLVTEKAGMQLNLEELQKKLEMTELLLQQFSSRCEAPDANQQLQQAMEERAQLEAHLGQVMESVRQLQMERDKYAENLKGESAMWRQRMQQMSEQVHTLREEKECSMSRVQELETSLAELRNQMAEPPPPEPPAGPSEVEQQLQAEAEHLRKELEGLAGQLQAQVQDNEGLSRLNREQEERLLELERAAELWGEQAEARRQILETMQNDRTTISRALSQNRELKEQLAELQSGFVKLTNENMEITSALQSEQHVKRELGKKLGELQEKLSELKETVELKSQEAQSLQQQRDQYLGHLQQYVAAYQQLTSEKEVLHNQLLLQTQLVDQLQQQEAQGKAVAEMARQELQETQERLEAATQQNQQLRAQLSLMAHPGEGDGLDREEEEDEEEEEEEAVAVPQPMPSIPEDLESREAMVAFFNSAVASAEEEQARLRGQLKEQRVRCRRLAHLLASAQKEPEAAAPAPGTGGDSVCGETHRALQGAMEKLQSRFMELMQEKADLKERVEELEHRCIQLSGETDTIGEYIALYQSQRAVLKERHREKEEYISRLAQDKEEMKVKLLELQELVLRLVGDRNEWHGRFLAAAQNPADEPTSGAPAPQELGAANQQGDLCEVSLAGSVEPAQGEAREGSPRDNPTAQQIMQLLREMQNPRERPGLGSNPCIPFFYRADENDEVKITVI
B5: Coiled-coil domain-containing protein 60 (Homo sapiens), Q8IWA6 (parent)
chain: MTKVPATKKLQSSPNSGAVRPFYASENLRQVPDKPMKSIKYMDKEIINLKKDLIRSRFLIQSVKIGRGYFAILREETAKKKKQQQLQKLKEEERNKFQPAEKISEIHYGDTLLSTYDDEKLKTLGARVTRRPFTPIHSCIISPSLTEAHVEPLFRQLCALHWLLEALTIDHTHHTMKPVITCWNPKDPGGSKSTIKKINKDKSMGQKWEHFITAPKTKKFKIPTMRVTNRKPSRRGSTLSLSRASGGSSPQSSMISVNPGSDEPPSVNTQVTSSKDIEDNESSSTKPDEEPLYMNLQKLLEMVREDARRTVTIENGMQRKAPSILSVLKQNKSNSAYKEMQTTLKSSERSSSTSAESHIQPVQKKSKNRTNCDINIHYKSGVCNTMRAKFYSVAQEAGFCLQDKMEILMKRQEERGIQKFRAFVLVSNFQKDIAKMRHHISVVKGDAEEIADHWYFDLLSKLPEDLKNFRPAKKILVKLQKFGENLDLRIRPHVLLKVLQDLRIWELCSPDIAVAIEFVREHIIHMPQEDYISWLQSRINIPIGPYSALR
B6: Homeobox protein VENTX (Homo sapiens), O95231 (parent)
chain: MRLSSSPPRGPQQLSSFGSVDWLSQSSCSGPTHTPRPADFSLGSLPGPGQTSGAREPPQAVSIKEAAGSSNLPAPERTMAGLSKEPNTLRAPRVRTAFTMEQVRTLEGVFQHHQYLSPLERKRLAREMQLSEVQIKTWFQNRRMKHKRQMQDPQLHSPFSGSLHAPPAFYSTSSGLANGLQLLCPWAPLSGPQALMLPPGSFWGLCQVAQEALASAGASCCGQPLASHPPTPGRPSLGPALSTGPRGLCAMPQTGDAF
partner: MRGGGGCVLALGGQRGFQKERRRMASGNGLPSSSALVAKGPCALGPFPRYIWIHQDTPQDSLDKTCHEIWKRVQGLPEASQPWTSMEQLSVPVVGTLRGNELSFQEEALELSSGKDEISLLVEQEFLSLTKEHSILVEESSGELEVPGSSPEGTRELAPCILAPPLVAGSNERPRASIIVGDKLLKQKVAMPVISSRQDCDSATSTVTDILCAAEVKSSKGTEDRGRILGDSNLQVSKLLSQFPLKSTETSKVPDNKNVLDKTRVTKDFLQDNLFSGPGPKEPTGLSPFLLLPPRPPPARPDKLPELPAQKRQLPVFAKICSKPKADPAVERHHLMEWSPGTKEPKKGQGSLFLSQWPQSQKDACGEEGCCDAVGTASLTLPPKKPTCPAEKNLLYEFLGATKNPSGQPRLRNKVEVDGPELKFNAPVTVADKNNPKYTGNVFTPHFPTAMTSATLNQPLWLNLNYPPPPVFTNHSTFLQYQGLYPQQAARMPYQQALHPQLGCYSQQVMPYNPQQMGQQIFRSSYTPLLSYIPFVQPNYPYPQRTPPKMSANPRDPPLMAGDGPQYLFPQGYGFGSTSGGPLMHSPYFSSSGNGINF

Variants of: B1
Details: with tri27_human TRIM27, P14373

Variant | effect of a mutation on the interaction
K127R | with no effect

Variants of: B2
Details: with lerl1_human LEPROTL1, O95214
lerl1_human LEPROTL1, O95214, sequence (O95214 whole entry): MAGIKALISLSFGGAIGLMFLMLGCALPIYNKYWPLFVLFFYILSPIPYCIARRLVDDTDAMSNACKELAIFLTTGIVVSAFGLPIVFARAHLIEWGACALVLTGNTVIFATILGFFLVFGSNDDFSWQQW

Variant | effect of a mutation on the interaction
P286T | with no effect

Variants of: B2
Details: with sc22a_human SEC22A

Variant | effect of a mutation on the interaction
P346L | with no effect
P275A | with no effect
V113A | with no effect

Variants of: B3
Details: with plp2_human PLP2, Q04941

Variant | effect of a mutation on the interaction
S104T | with no effect
D144G | with no effect
V147M | with no effect

Variants of: B4
Details: with goga2_human GOLGA2, Q08379

Variant | effect of a mutation on the interaction
T138M | disrupting interaction strength

Variants of: B5
Details: with mtus2_human MTUS2, Q5JR59
mtus2_human MTUS2, Q5JR59, sequence (Q5JR59 whole entry): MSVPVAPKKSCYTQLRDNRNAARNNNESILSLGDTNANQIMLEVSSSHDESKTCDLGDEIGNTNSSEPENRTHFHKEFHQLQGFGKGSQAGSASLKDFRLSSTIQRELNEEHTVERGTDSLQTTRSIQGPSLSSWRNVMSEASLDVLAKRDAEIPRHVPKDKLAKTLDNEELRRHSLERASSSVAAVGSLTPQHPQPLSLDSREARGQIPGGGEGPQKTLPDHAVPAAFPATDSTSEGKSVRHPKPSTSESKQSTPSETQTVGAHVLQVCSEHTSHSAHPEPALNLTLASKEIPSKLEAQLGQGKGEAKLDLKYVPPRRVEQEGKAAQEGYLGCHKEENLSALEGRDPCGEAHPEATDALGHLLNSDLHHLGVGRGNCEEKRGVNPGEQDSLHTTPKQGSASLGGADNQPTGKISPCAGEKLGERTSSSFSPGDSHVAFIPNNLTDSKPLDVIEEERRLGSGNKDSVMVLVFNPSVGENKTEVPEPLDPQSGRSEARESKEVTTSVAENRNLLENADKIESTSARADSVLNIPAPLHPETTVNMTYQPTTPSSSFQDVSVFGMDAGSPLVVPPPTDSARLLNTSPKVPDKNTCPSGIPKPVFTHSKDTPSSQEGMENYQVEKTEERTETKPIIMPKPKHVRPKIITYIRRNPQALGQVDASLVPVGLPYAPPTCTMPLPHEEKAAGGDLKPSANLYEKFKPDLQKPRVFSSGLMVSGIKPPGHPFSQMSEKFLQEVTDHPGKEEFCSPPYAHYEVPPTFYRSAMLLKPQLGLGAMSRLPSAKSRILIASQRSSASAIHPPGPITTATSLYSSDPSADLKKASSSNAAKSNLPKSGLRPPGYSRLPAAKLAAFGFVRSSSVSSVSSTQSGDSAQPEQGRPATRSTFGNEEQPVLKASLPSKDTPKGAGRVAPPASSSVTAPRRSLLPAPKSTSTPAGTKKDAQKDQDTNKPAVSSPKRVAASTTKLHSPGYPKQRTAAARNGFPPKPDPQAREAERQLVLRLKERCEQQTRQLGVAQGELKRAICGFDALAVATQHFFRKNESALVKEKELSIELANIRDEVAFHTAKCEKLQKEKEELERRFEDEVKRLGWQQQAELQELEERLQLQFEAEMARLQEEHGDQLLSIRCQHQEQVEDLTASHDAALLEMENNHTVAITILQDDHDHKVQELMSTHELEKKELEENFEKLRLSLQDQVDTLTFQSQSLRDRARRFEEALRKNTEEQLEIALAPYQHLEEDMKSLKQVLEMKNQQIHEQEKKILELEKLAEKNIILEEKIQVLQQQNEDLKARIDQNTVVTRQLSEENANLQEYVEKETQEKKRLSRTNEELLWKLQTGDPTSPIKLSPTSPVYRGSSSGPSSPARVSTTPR

Variant | effect of a mutation on the interaction
I46V | disrupting interaction strength

Variants of: B6
Details: with ca094_human C1orf94, Q6P1W5

Variant | effect of a mutation on the interaction
L42P | with no effect
